According to PMC3223260 (Biochimica et biophysica acta, 2011):

B1: IF3mt lacking the N- and C-terminal extensions (IF3mtΔNC) (domain or fragment, human, UniProt Q9H2K0 61-245, looked up)
chain: TQNEGKKTKKNKTAFSNVGRKISQRVIHLFDEKGNDLGNMHRANVIRLMDERDLRLVQRNTSTEPAEYQLMTGLQILQERQRLREMEKANPKTGPTLRKELILSSNIGQHDLDTKTKQIQQWIKKKHLVQITIKKGKNVDVSENEMEEIFHQILQTMPGIATFSSRPQAVQGGKALMCVLRAFSK
B3: C-domain with the linker region of IF3mt (IF3mt(C+L)) (domain or fragment, human, UniProt Q9H2K0 131-278, looked up)
chain: MTGLQILQERQRLREMEKANPKTGPTLRKELILSSNIGQHDLDTKTKQIQQWIKKKHLVQITIKKGKNVDVSENEMEEIFHQILQTMPGIATFSSRPQAVQGGKALMCVLRAFSKNEEKAYKETQETQERDTLNKDHGNDKESNVLHQ

Legend:
Experiment in all cases: cross-linking
[1] = target: PTCD3 (bovine (endogenous in bovine …, UniProt Q2KI62 38-688))
[2] = target: MRPS18-2 (bovine (endogenous in bovine …, UniProt P82918 36-258))
[3] = target: MRPS29 (bovine (endogenous in bovine …, UniProt P82922 18-397))
[4] = target: Full length mature human mitochondrial translational initiation factor 3 (IF3mt) (human, UniProt Q9H2K0 32-278)
[5] = target: B1
[6] = target: B3

Sequence of PTCD3 (bovine (Q2KI62 38-688): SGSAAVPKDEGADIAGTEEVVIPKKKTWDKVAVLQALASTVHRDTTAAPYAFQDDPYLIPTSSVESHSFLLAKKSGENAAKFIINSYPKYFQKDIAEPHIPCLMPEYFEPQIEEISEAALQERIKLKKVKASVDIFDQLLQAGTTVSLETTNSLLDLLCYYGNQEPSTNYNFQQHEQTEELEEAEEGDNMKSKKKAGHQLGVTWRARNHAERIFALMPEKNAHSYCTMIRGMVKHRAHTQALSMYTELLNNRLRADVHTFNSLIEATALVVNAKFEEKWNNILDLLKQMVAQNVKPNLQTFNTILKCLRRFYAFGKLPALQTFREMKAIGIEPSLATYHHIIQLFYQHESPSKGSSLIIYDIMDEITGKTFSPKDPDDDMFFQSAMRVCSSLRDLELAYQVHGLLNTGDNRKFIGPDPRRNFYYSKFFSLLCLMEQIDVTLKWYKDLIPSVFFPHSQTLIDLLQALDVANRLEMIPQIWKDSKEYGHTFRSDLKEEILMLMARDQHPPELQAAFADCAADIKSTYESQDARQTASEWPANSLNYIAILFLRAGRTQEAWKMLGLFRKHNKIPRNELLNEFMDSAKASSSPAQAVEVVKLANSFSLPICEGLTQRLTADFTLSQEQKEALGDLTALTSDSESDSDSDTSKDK

B1: binds [1]; binds [2]; binds [3].

B2: MRPS32 (natural protein, UniProt P82927 33-142, looked up)
chain: KSTYSSLPDDYNCKVELALTSDARTIVCYHPSVDIPYEHTKPIPRPDPVHNNEETHDLVLKTRLEEKSEHLEQGPMIEQLSKMFFTTKHRWYPRGQYHRRRRKLNPPKDR
B2: binds [4]; binds [5]; binds [6].

B3: binds [1]; binds [3].

B4: MRPS36 (natural protein, UniProt P82908 1-103, looked up)
chain: MMGSKMASASRVVQVVKPHTPLIRFPDRRDNPKPNVSEVLRSAGLPSHTSSISQHSKGSKSPDWLMHQGPPDTAEMIKTLPQKYRRKLVSQEEIEFIQRGGPE
B4: binds [4]; binds [6].
